Laboratory results published in PMC11472046 (2024).
Changes are numbered by the printed parent chain. Names and notes keep the numbering of the source. One block for each binder: values may come before it.

Tests used:
H3K9me3 mononucleosome = H3K9me3 mononucleosome (trimethyl-lysine at 9 (H3K9me3)); experiment: apparent K1/2 by EMSA
H3K9me0 mononucleosome = experiment: apparent K1/2 by EMSA

Kd (H3K9me3 mononucleosome): 66 nM
Kd (H3K9me0 mononucleosome): 134 nM
B1: Chp2-WT (recombinant) (natural protein)
chain: MVKSADLDLMNSIISESDENFSPPPFTVEEAENSINNKSSTASLESPQNGSWHPSLYGLSVPEKTHIQNSLDLYSHGNSGSQKTHNVSFSCEIRKVKSSKLSPISNMEDSEDKKEEDESSSYKNEFKSSSSASVSSNFEKTSGSDDHNSQSPVPLNEGFEYIASSGSEDKNSDEEFAVEMILDSRMKKDGSGFQYYLKWEGYDDPSDNTWNDEEDCAGCLELIDAYWESRGGKPDLSSLIRLTRSRARSSNEASYVEKDESSNSDDSISYKRRRSRNAANRITDYVDSDLSESSMKEKQSKIEKYMKSDKSSKNFKPPFQKKSWEDLVDCVKTVQQLDNGKLIAKIKWKNGYVSTHDNIIIHQKCPLKIIEYYEAHIKFT

Kd (H3K9me3 mononucleosome): 145 nM
Kd (H3K9me0 mononucleosome): 135 nM
B2: Chp2 W199A (recombinant) (natural protein)
chain: B1 chain with W199A
